Settings in all cases: both partners purified
The target of one assay is T1, MMP-9 (UniProt P14780 107-707).
T1 construct: MMP-9, active enzyme after removal of the pro-domain with APMA
Kind of assay: enzyme activity of pre-formed complexes against synthetic substrates; 10 nM [35S]TIMP-3 incubated with an equimolar concentration of metalloproteinase for 1 h at 37 °C; complex formation and stability over 24 h checked by activity.

The target in assay [1] is T2, low-density lipoprotein receptor-related protein 1 (LRP-1) (UniProt Q07954 20-4544).
T2 construct: low-density lipoprotein receptor-related protein 1 (LRP-1), bought from Biomac; source: bought: Biomac (Leipzig, Germany)
T2 sequence (Q07954 20-4544): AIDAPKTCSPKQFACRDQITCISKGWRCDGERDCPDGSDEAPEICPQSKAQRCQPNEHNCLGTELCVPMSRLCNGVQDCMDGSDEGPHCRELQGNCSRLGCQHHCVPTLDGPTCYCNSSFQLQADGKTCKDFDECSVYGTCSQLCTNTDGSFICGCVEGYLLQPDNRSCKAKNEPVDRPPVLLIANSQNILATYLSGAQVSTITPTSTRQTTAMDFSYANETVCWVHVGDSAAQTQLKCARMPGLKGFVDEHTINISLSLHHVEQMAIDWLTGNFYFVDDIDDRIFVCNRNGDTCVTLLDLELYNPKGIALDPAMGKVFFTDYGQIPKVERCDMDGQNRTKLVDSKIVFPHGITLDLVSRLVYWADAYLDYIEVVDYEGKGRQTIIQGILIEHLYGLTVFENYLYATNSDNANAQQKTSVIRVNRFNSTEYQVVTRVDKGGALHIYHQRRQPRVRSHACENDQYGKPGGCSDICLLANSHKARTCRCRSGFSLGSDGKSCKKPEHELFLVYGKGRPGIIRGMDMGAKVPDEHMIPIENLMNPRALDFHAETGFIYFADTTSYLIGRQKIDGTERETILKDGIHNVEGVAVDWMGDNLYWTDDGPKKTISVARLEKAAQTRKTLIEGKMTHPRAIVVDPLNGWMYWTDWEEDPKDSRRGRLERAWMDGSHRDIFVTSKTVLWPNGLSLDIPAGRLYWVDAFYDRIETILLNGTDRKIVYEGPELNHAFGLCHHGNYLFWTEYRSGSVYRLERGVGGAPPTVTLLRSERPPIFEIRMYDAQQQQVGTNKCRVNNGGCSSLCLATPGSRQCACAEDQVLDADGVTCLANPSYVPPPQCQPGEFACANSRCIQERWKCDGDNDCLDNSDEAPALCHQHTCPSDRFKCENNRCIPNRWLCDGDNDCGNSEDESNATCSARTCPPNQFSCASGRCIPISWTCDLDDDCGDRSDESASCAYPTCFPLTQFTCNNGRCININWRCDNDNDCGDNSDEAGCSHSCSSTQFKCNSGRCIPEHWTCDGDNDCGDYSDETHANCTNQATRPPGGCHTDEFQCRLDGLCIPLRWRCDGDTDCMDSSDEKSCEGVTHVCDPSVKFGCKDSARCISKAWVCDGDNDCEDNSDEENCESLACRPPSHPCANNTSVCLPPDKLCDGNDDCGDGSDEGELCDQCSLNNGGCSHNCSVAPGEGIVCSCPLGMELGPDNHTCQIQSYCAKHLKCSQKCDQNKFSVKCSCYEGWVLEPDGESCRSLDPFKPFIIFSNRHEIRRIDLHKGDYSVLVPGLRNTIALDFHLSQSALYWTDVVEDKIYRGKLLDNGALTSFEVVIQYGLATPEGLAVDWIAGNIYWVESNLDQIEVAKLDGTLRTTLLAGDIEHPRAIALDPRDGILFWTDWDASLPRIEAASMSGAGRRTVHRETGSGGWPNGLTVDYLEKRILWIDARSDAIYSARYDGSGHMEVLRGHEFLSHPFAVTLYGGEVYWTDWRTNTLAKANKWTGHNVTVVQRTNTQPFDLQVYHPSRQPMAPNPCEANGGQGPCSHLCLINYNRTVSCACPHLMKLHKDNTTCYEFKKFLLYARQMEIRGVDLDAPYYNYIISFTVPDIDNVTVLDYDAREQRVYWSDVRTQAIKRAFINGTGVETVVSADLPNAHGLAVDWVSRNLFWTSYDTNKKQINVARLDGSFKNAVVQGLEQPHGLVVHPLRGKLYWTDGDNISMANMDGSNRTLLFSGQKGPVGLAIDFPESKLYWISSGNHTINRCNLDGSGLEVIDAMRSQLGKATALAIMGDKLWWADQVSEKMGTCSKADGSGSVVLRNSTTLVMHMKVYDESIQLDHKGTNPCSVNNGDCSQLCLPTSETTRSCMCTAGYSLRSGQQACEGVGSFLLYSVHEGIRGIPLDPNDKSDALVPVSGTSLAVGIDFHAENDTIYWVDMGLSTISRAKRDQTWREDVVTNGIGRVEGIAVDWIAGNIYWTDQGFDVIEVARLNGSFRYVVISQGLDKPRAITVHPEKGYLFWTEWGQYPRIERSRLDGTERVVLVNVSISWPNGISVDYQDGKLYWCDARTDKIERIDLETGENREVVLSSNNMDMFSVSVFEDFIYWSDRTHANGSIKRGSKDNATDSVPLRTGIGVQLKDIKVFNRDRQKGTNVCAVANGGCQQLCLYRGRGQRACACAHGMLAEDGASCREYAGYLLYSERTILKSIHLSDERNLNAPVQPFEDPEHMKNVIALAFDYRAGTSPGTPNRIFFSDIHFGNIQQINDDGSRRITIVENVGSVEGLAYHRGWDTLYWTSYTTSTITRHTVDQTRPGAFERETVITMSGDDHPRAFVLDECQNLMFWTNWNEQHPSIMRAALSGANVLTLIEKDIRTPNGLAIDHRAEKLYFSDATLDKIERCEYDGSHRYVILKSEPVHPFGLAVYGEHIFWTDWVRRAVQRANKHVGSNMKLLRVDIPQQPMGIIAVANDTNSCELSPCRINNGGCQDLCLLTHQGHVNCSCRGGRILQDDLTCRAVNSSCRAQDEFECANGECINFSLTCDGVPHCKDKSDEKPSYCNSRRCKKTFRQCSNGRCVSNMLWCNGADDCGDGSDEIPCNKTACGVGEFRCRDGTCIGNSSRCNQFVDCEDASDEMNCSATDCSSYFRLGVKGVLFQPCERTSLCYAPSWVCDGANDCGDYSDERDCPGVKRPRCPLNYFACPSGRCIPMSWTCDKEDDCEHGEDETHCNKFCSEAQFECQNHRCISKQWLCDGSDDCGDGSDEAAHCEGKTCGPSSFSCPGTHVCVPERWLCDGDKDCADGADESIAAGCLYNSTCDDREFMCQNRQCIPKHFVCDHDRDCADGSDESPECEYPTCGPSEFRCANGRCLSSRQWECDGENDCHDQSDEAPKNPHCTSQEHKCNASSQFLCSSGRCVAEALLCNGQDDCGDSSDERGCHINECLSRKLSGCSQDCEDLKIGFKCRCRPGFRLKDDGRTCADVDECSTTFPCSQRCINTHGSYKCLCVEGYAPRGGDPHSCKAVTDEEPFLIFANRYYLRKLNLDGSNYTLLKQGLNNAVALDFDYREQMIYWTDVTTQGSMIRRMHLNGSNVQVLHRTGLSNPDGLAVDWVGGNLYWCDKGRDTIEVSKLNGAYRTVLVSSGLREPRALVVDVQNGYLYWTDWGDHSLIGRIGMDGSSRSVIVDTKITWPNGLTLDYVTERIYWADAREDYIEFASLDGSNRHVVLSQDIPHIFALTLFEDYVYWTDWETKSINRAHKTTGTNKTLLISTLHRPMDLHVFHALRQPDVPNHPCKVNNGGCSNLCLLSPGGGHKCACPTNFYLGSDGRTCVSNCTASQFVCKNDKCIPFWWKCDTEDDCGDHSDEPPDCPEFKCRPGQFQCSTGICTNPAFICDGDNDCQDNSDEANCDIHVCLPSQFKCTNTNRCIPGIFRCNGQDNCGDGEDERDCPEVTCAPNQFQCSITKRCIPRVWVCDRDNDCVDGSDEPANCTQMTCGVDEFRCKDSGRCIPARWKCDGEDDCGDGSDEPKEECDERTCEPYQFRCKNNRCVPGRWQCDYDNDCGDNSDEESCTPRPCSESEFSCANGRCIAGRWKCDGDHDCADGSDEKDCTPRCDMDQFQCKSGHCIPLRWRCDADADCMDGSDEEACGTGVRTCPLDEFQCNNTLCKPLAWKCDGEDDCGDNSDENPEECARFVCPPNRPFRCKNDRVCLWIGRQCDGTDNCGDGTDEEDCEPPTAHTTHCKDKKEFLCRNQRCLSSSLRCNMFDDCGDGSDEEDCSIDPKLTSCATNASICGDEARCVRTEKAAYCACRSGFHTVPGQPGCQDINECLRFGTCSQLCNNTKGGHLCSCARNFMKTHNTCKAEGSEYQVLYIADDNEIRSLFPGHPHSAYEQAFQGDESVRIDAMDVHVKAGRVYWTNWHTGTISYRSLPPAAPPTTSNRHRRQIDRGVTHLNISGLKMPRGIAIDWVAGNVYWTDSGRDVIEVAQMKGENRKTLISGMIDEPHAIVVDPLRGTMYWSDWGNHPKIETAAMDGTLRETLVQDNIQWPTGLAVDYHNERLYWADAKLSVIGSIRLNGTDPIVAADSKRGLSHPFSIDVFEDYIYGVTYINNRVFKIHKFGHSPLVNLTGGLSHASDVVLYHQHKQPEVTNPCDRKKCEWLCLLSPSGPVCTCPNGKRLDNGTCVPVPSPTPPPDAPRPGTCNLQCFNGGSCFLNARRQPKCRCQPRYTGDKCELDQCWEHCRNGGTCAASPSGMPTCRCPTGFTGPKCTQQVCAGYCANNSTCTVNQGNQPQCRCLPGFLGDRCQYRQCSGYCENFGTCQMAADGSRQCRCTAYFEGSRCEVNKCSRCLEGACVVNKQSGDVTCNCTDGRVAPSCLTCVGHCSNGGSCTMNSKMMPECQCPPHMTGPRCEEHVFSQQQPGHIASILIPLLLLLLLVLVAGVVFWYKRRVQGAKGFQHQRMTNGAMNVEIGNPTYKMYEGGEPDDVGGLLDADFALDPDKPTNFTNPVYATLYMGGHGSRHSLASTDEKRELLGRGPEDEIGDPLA
Description: SPR; BIAcore T200; LRP-1 immobilised on a CM5 chip by amine coupling (3000 RU); 25 °C; 150 mM NaCl, 10 mM CaCl2, 50 mM Tris-HCl, 0.01% Tween-20, pH 7.5; 30 μl/min; ligands or pre-formed complexes injected; one-site binding model; triplicate. Background: SPR reads the build-up and loss of mass on a sensor chip optically.

The target of assay [2] is T3, FLAG-tagged ADAMTS-4 lacking the C-terminal spacer domain (ADAMTS4-2) (UniProt O75173 213-685).
T3 construct: ADAMTS-4 lacking the C-terminal spacer domain
T3 sequence (looked up): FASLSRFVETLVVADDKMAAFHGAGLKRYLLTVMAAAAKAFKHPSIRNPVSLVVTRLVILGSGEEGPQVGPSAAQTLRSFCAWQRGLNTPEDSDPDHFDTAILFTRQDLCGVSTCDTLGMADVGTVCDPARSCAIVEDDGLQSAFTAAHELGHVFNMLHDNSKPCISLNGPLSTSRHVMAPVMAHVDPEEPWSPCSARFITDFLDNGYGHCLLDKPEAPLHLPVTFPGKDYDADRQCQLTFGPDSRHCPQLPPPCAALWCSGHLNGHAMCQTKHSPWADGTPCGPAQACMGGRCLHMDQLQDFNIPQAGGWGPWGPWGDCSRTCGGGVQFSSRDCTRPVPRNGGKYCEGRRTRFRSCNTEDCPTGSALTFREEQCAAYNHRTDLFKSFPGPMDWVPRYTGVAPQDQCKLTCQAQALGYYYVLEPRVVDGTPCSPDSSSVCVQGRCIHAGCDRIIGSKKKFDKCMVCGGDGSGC
Kind of assay: enzyme inhibition kinetics (fluorogenic peptide substrates); apparent Ki; enzyme pre-incubated with TIMP-3 (0.5-100 nM) 1 h at 37 °C, equilibrium rate of substrate hydrolysis; TNC buffer (50 mM Tris-HCl pH 7.5, 150 mM NaCl, 10 mM CaCl2, 0.05% Brij-35, 0.02% NaN3), 37 °C; tight-binding equation.

Assay [3] addresses T4, MMP-3 catalytic domain (MMP-3ΔC) (UniProt P08254 100-272).
T4 construct: catalytic domain of MMP-3; pro-domain removed with APMA
Described as above.

For assay [4], the target named is T5, MMP-13 (active enzyme of the inhibition assays) (UniProt P45452 20-471).
T5 construct: MMP-13 whose activity was measured (0.1 nM)
The description is as above.

For assay [5], the target named is T3, FLAG-tagged ADAMTS-4 lacking the …. The assay is described as above. The source holds these as a separate data set.
The target of another assay is T6, ADAM17 ectodomain (UniProt P78536 215-671).
T6 construct: ADAM17 ectodomain from R&D Systems; source: bought: R&D Systems
T6 sequence (P78536 215-671): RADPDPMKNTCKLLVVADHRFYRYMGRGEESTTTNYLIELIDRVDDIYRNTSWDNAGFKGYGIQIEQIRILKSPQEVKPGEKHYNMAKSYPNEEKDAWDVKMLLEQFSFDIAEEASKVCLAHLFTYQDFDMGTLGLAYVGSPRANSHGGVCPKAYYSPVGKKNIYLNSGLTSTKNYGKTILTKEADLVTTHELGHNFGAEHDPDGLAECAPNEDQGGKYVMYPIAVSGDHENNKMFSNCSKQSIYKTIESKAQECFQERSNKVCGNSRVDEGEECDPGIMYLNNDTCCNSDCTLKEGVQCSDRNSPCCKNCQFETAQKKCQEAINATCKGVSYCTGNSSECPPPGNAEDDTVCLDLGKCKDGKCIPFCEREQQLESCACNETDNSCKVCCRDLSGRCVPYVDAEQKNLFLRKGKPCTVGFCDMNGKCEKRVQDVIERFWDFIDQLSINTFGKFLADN
The description is as above.

The target in assay [6] is T7, catalytic domain of human MMP-1 (MMP-1ΔC) (human, UniProt P03956 100-269).
T7 construct: catalytic domain of human MMP-1 (lacks the hemopexin domain); pro-domain removed with APMA
T7 sequence (looked up): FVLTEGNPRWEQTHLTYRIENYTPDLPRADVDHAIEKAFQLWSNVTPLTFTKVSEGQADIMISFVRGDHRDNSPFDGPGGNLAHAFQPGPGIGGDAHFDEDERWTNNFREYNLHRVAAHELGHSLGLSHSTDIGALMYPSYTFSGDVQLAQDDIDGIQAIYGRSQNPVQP
The description is as above.

T4 sequence (P08254 100-272, stated change not applied): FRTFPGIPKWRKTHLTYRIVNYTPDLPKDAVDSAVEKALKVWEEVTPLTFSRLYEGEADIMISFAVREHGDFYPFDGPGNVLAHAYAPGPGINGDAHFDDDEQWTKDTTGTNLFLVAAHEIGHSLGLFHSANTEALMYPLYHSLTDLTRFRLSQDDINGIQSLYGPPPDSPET

B1: FLAG-tagged TIMP-3 (natural protein, UniProt P35625 24-211, looked up)
chain: CTCSPSHPQDAFCNSDIVIRAKVVGKKLVKEGPFGTLVYTIKQMKMYRGFTKMPHVQYIHTEASESLCGLKLEVNKYQYLLTGRVYDGKMYTGLCNFVERWDQLTLSQRKGLNYRYHLGCNCKIKSCYYLPCFVTSKNECLWTDMLSNFGYPGYQSKHYACIRQKGGYCSWYRGWAPPDKSIINATDP
notes: also called T3; [35S]TIMP-3
By stoichiometry N is commonly meant a count of units in the complex or per binding partner. One may read the Kd as the free concentration of one partner at which half of the binding sites on the other are occupied at equilibrium, for simple one-to-one binding. A high value points to weaker binding. As a reminder, the koff is the rate constant with which the complex falls apart. Lower therefore signals a long-lived complex. For orientation: kon means the second-order rate constant of association. High values mean fast association, low ones slow association. For B1, the “stoichiometry N” value with MMP-9 was found to be 1. In assay [1], this molecule displayed a Kd of 1.68 nM. The molecule further returned a koff in assay [1] of 0.00389 s⁻¹. Besides, in assay [1], the kon was 2.31e+06 M⁻¹ s⁻¹. Further, the Ki in assay [2] was 1.24 nM; in assay [3], 0.55 nM; in assay [4] it was < 0.5 nM; in assay [5], 0.124 nM; with ADAM17 ectodomain it was 3.61 nM; in assay [6], 1.86 nM.

For the origin of these results see article PMC7374751, “TIMP-3 facilitates binding of target metalloproteinases to the endocytic receptor LRP-1 and promotes scavenging of MMP-1” (Scientific Reports, 2020).
